First the molecules themselves.
B1: RNA-binding E3 ubiquitin-protein ligase MEX3C, residues 325 to 391; numbered along this chain, Q5U5Q3 (parent)
chain: GQTTVQVRVPYRVVGLVVGPKGATIKRIQQQTHTYIVTPSRDKEPVFEVTGMPENVDRAREEIEMHI

The text below walks through data of the Human Domainome abundance scans (Beltran et al. 2025).

± gives the uncertainty stated by the source.

In the series the parent is B1. Kind of series: abundance fitness (aPCA) (normalised: wild type 0, dead -1); higher = more abundant; growth selection in yeast, the domain comes from the species named. As to conditions: Homo sapiens.
GQTTVQVRVPYRVVGLVVGPKGATIKRIQQQTHTYIVTPSRDKEPVFEVTGMPTNVDRAREEIEMHI [E54T]: the abundance fitness was -0.267 ± 0.089. GQTTVQVRVPYRVVGLVVGPKGATIKRIQQQTHTYIVTPSRDKEPVFEVTGMPWNVDRAREEIEMHI [E54W]: the abundance fitness was -0.174 ± 0.074. In the case of GQTTVQVRVPYRVVGLVVGPKGATIKRIQQQTHTYIVTPSRDKEPVFEVTGMPYNVDRAREEIEMHI [E54Y], the abundance fitness is -0.382 ± 0.13.

Take GQTTVQVRVPYRVVGLVVGPKGATIKRIQQQTHTYIVTPSRDKEPVFEVTGMPPNVDRAREEIEMHI [E54P]: the abundance fitness was -0.235 ± 0.071.

Regarding GQTTVQVRVPYRVVGLVVGPKGATIKRIQQQTHTYIVTPSRDKEPVFEVTGMPQNVDRAREEIEMHI [E54Q], the abundance fitness was -0.321 ± 0.14. Regarding GQTTVQVRVPYRVVGLVVGPKGATIKRIQQQTHTYIVTPSRDKEPVFEVTGMPRNVDRAREEIEMHI [E54R], the abundance fitness was -0.248 ± 0.049. As for GQTTVQVRVPYRVVGLVVGPKGATIKRIQQQTHTYIVTPSRDKEPVFEVTGMPSNVDRAREEIEMHI [E54S], the abundance fitness is -0.213 ± 0.062. GQTTVQVRVPYRVVGLVVGPKGATIKRIQQQTHTYIVTPSRDKEPVFEVTGMPVNVDRAREEIEMHI [E54V]: the abundance fitness is -0.485 ± 0.073. Consider GQTTVQVRVPYRVVGLVVGPKGATIKRIQQQTHTYIVTPSRDKEPVFEVTGMPENNDRAREEIEMHI [V56N], for which the abundance fitness is -1.11 ± 0.48. GQTTVQVRVPYRVVGLVVGPKGATIKRIQQQTHTYIVTPSRDKEPVFEVTGMPENSDRAREEIEMHI [V56S]: the abundance fitness was -0.496 ± 0.081. GQTTVQVRVPYRVVGLVVGPKGATIKRIQQQTHTYIVTPSRDKEPVFEVTGMPENRDRAREEIEMHI [V56R]: the abundance fitness was -0.799 ± 0.081.

Turning to GQTTVQVRVPYRVVGLVVGPKGATIKRIQQQTHTYIVTPSRDKEPVFEVTGMPENKDRAREEIEMHI [V56K], the abundance fitness is -0.402 ± 0.11. For the variant GQTTVQVRVPYRVVGLVVGPKGATIKRIQQQTHTYIVTPSRDKEPVFEVTGMPENIDRAREEIEMHI [V56I], the abundance fitness is -0.21 ± 0.094. Consider GQTTVQVRVPYRVVGLVVGPKGATIKRIQQQTHTYIVTPSRDKEPVFEVTGMPENLDRAREEIEMHI [V56L], for which the abundance fitness is -0.574 ± 0.1. Turning to GQTTVQVRVPYRVVGLVVGPKGATIKRIQQQTHTYIVTPSRDKEPVFEVTGMPENMDRAREEIEMHI [V56M], the abundance fitness was -0.455 ± 0.19. Under GQTTVQVRVPYRVVGLVVGPKGATIKRIQQQTHTYIVTPSRDKEPVFEVTGMPENHDRAREEIEMHI [V56H] stands -0.712 ± 0.42; under GQTTVQVRVPYRVVGLVVGPKGATIKRIQQQTHTYIVTPSRDKEPVFEVTGMPENEDRAREEIEMHI [V56E], -0.927 ± 0.22; under GQTTVQVRVPYRVVGLVVGPKGATIKRIQQQTHTYIVTPSRDKEPVFEVTGMPENQDRAREEIEMHI [V56Q], -0.455 ± 0.1. In the case of GQTTVQVRVPYRVVGLVVGPKGATIKRIQQQTHTYIVTPSRDKEPVFEVTGMPENADRAREEIEMHI [V56A], the abundance fitness was -0.585 ± 0.089.

For GQTTVQVRVPYRVVGLVVGPKGATIKRIQQQTHTYIVTPSRDKEPVFEVTGMPENCDRAREEIEMHI [V56C], the abundance fitness turned out to be 0.009 ± 0.097. As to GQTTVQVRVPYRVVGLVVGPKGATIKRIQQQTHTYIVTPSRDKEPVFEVTGMPENDDRAREEIEMHI [V56D], the abundance fitness was -0.75 ± 0.19. With GQTTVQVRVPYRVVGLVVGPKGATIKRIQQQTHTYIVTPSRDKEPVFEVTGMPENTDRAREEIEMHI [V56T], the abundance fitness is -0.286 ± 0.096. As for GQTTVQVRVPYRVVGLVVGPKGATIKRIQQQTHTYIVTPSRDKEPVFEVTGMPENWDRAREEIEMHI [V56W], the abundance fitness was -0.809 ± 0.12. For GQTTVQVRVPYRVVGLVVGPKGATIKRIQQQTHTYIVTPSRDKEPVFEVTGMPEIVDRAREEIEMHI [N55I], the abundance fitness is -0.646 ± 0.18.

Consider GQTTVQVRVPYRVVGLVVGPKGATIKRIQQQTHTYIVTPSRDKEPVFEVTGMPEDVDRAREEIEMHI [N55D], for which the abundance fitness came to 0.033 ± 0.067. Under GQTTVQVRVPYRVVGLVVGPKGATIKRIQQQTHTYIVTPSRDKEPVFEVTGMPEQVDRAREEIEMHI [N55Q] stands 0.138 ± 0.092; under GQTTVQVRVPYRVVGLVVGPKGATIKRIQQQTHTYIVTPSRDKEPVFEVTGMPEAVDRAREEIEMHI [N55A], -0.146 ± 0.064. The result for GQTTVQVRVPYRVVGLVVGPKGATIKRIQQQTHTYIVTPSRDKEPVFEVTGMPEVVDRAREEIEMHI [N55V] reads -0.8 ± 0.11; that for GQTTVQVRVPYRVVGLVVGPKGATIKRIQQQTHTYIVTPSRDKEPVFEVTGMPEEVDRAREEIEMHI [N55E], -0.401 ± 0.08; that for GQTTVQVRVPYRVVGLVVGPKGATIKRIQQQTHTYIVTPSRDKEPVFEVTGMPESVDRAREEIEMHI [N55S], -0.426 ± 0.079.

Turning to GQTTVQVRVPYRVVGLVVGPKGATIKRIQQQTHTYIVTPSRDKEPVFEVTGMPEMVDRAREEIEMHI [N55M], the abundance fitness was -0.541 ± 0.11. GQTTVQVRVPYRVVGLVVGPKGATIKRIQQQTHTYIVTPSRDKEPVFEVTGMPECVDRAREEIEMHI [N55C]: the abundance fitness was -0.544 ± 0.16. As to GQTTVQVRVPYRVVGLVVGPKGATIKRIQQQTHTYIVTPSRDKEPVFEVTGMPEWVDRAREEIEMHI [N55W], the abundance fitness was -1.17 ± 0.48.

In the case of GQTTVQVRVPYRVVGLVVGPKGATIKRIQQQTHTYIVTPSRDKEPVFEVTGMPEYVDRAREEIEMHI [N55Y], the abundance fitness is -0.811 ± 0.21. Regarding GQTTVQVRVPYRVVGLVVGPKGATIKRIQQQTHTYIVTPSRDKEPVFEVTGMPEKVDRAREEIEMHI [N55K], the abundance fitness is -0.647 ± 0.13. For the variant GQTTVQVRVPYRVVGLVVGPKGATIKRIQQQTHTYIVTPSRDKEPVFEVTGMPELVDRAREEIEMHI [N55L], the abundance fitness was -0.885 ± 0.15. Turning to GQTTVQVRVPYRVVGLVVGPKGATIKRIQQQTHTYIVTPSRDKEPVFEVTGMPERVDRAREEIEMHI [N55R], the abundance fitness is -0.789 ± 0.084. For GQTTVQVRVPYRVVGLVVGPKGATIKRIQQQTHTYIVTPSRDKEPVFEVTGMPEFVDRAREEIEMHI [N55F], the abundance fitness is -0.711 ± 0.24.

Take GQTTVQVRVPYRVVGLVVGPKGATIKRIQQQTHTYIVTPSRDKEPVFEVTGMPETVDRAREEIEMHI [N55T]: the abundance fitness is -0.627 ± 0.14. Take GQTTVQVRVPYRVVGLVVGPKGATIKRIQQQTHTYIVTPSRDKEPVFEVTGMPEGVDRAREEIEMHI [N55G]: the abundance fitness was -0.281 ± 0.048.
